Laboratory results from IntAct's records for PubMed 21358815.

B1: BAG family molecular chaperone regulator 5 (Rattus norvegicus (Rat)), Q5QJC9 (parent)
chain: MDMGNQHPSISRLQEIQREVKSIEQQVVGFSGLSDDKNYKRLERILTKQLFEIDSVDTEGKGDIQQARKRAAQDTERLLKELEQNANHPHRIEIKNIFQEAQALVKEKTVPFYSGSNCVTSEFEEAIQDIILRLTHVKTGGKISLRKARYHTLTKICAVQEIIEDCVRKQPSLPLSEDVHPSVAKINSVMCEVNKARGTLIALLMGVDSSETCRHLSCVLSGLMADLDALDVCGRTEIRNYRREVVEDINKLLKYLDLEEEADNTHAFDLGQNHSIIKIENVLKRMREMKNELLQAQSPPELYLRSKTELQGLIGQLDEVSLEKNPCIREARRRAVIEVQTLITYLDLKEALEKRKLFPCEETPPHKAVWNVLGNLSEIQGEVLSFGGNRTDKNYIRLEELLTKQLLTLDAVDPLGEEKCKAARKQAVKLAQNILSYLDMKSDEWEY

Variants of: B1
Details: with chip_human STUB1, Q9UNE7
Chain of chip_human STUB1, Q9UNE7 (Q9UNE7 whole entry): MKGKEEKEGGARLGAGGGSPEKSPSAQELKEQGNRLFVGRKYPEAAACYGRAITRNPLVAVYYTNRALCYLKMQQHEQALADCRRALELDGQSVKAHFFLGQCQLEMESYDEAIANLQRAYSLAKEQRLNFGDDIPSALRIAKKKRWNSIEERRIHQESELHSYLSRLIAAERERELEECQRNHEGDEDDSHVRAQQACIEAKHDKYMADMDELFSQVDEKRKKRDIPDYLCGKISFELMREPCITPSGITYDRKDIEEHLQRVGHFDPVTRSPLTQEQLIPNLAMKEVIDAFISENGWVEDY

Row | effect of a mutation on the interaction | Variant
1 | disrupting interaction | D54A;R68A;D228A;R242A;D318A;R332A;D410A;R424A
